From patent US20260078398A1, “PLANTS GENETICALLY ENGINEERED FOR INCREASED WATER USE EFFICIENCY AND CARBON INTAKE AND METHODS FOR MAKING AND USING THEM” (The Regents of the University of California, priority 2022, published 2026)
Changes are numbered by the printed parent chain. Numbers in names are those of the source.

Assays:
Brachypodium distachyon = test: stomatal conductance after ABA added to the transpiration stream (gas exchange analyzer); type: in vivo; details: 2 μM ABA
Protocol: We next investigated stomatal closure in response to abscisic acid.
(top infrared thermal image, bottom photo of the same plants). • (B) Stomatal density and (C) stomatal index were determined using leaf imprints created of the 4th true leaf of plants with 3 independent replicates plants per genotype with 4 images per plant. Circles represent counts per each image while diamonds are the average per each plant. Error bars represent SEM while p-values were obtained from two-tailed t-tests comparing mutant to WT. • (D) Stomatal conductance was quantified using a gas exchange analyzer. […] Data shown are the average of n=3±SEM plants per genotype using 1 leaf per experiment and genotype.
FIG. 14 (or FIG. 8 of Example 2): Bdmpk5 CRISPR Alleles Show Strong CO2 insensitivity but functional ABA responses. • (A, B) 5 to 6 week old plants were analyzed in time-resolved stomatal conductance analyses. • (A) CRISPR alleles show strongly impaired stomatal responses to CO2 shifts. […] Data shown are the average of n=3±SEM experiments using one leaf per experiment and genotype. • (C,D) Stomatal density (C) and stomatal index (D) were determined using leaf imprints created of the 4th true leaf with 3 replicate plants and genotype. […]

BdMPK5, HT1 and CBC1 = test: in vitro phosphorylation assay with GST-CBC1, His-HT1 and His-BdMPK5; type: biochemical, Brachypodium distachyon; details: with or without 20 mM NaHCO3, n=2
Protocol: Furthermore, this activation of CBC1 is inhibited by elevated CO2/bicarbonate only when HT1, CBC1 and MPK4 or MPK12 are included in the reconstituted reaction (Takahashi et al., 2022). […] The high CO2/bicarbonate response was similar to high CO2 responses found for AtMPK4 and AtMPK12, but not for the close homolog AtMPK11 (Takahashi et al., 2022).
In vitro phosphorylation assays were performed using GST-CBC1, His-HT1 and His-BdMPK5 (WT or D90N) recombinant proteins with or without 20 mM NaHCO3. Phosphorylation levels of CBC1 (top) and Coomassie brilliant blue (CBB)-stained gels (bottom) are shown. • (B) AlphaFold2-predicted complex of BdMPK5 with HT1. BdMPK5 is shown in red, while HT1 is shown in blue. The BdMPK5-D90 residue, which is mutant in chill1, is colored green, and is predicted, based on the wildtype BdMPK5-HT1 simulation, to lie at the interface of BdMPK5 and HT1.

[1] = molecular target: T1, GST-CBC1 (recombinant Arabidopsis Raf-like kinase CBC1 with GST tag)
T1 sequence (Q9SSA4 whole entry, looked up): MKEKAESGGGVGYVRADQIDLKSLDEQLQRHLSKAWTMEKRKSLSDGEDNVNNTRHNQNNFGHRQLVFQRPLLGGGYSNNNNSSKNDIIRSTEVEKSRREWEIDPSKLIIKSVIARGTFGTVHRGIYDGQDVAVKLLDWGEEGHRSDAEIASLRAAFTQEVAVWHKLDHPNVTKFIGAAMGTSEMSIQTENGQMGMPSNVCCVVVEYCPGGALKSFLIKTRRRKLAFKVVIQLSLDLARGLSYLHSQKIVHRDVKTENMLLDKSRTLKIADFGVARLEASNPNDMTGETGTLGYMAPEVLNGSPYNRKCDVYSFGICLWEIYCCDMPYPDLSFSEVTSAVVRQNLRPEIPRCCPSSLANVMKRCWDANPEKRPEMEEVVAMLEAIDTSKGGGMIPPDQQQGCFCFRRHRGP

MPK4 and HT1 = test: in vitro pull-down assay, His-HT1 with GST-MPK4; type: binding, Arabidopsis; details: pull-down with or without 20 mM NaHCO3
Protocol: We therefore investigated a possible binding between MPK4 and HT1 and the effect of HCO3^−.
FIG. 4. […] CO2 concentration changes were applied as indicated on top (p.p.m.). n=6 experiments, error bars show ±SEM. • (J) Model of plant stomatal CO2 sensor and signaling (see text).
FIG. 6. […] Precipitated proteins were washed with buffers supplemented with NaHCO3 at the indicated concentrations (0, 2 or 20 mM). See FIG. 4d for an independent experiment. To control for effects of Na^+, 20 mM NaCl (0 mM NaHCO3) for lanes 1 and 4 were included in the buffers; and 18 mM NaCl (2 mM NaHCO3) for lane 3 were included in buffer.

[2] = test system: MPK4/12, HT1 and CBC1 recombinant proteins; test: in vitro phosphorylation assay: NaHCO3-dependent down-regulation of HT1-mediated CBC1 phosphorylation; type: biochemical, Arabidopsis; details: isoform replaces wild type protein or is added; 20 mM NaHCO3 vs NaCl control, 30 min
Protocol: We tested whether this HT1-mediated activation of CBC1 is inhibited by CO2/bicarbonate by adding NaHCO3 in in vitro phosphorylation reactions. […]
FIG. 2. […] Histone was used as an artificial protein kinase substrate. • (B) MPK4, HT1 and CBC1 proteins were incubated with NaHCO3 at the indicated concentrations for 30 min, and in vitro phosphorylation assays were performed. • (C) CBC1 band intensities as shown in (B) were measured using IMAGEJ™, n=4 experiments, error bars show ±S.D. • (D) MPK4, HT1 and CBC1 proteins were incubated in reaction buffers adjusted at different pH (6.5 to 8.5) for 30 min, and in vitro phosphorylation assays were performed. • (E) CBC1 band intensities and the density-ratios of ‘+NaHCO3’ to ‘—NaHCO3’ (=+NaCl controls) for each pH condition
FIG. 3. […] Ambient CO2 concentrations are indicated by the top bars. n=7 experiments, error bars show ±SEM. • (C) Recombinant HT1 (wild type, HT1-G89R or HT1-R173Q) and CBC1 proteins were incubated with MPK4 in the presence or absence of 20 mM NaHCO3 or 20 mM NaCl (−controls) for 30 min, and in vitro phosphorylation assays were performed. • (D) Recombinant MPK12, CBC1 and HT1 (WT or R102K) proteins were incubated with or without 20 mM NaHCO3 or 20 mM NaCl (−controls) for 30 min, and in vitro phosphorylation assays were performed. Histone was used as an artificial kinase substrate. • (E) HT1 (WT or A109V) proteins were used for in vitro phosphorylation assays. Proteins were incubated with or without 20 mM NaHCO3 or 20 mM NaCl (−controls) for 30 min. • (F) Stomatal conductances were analyzed using intact plants of Arabidopsis (Col-0 (WT), cbc1 cbc2, ht1-A109V and cbc1 cbc2 ht1-A109V). CO2 concentration changes were applied as indicated on top (p.p.m.). […]

[3] = molecular target: T2, GST-MPK4 (recombinant Arabidopsis MAP kinase MPK4 with GST tag)
T2 chain: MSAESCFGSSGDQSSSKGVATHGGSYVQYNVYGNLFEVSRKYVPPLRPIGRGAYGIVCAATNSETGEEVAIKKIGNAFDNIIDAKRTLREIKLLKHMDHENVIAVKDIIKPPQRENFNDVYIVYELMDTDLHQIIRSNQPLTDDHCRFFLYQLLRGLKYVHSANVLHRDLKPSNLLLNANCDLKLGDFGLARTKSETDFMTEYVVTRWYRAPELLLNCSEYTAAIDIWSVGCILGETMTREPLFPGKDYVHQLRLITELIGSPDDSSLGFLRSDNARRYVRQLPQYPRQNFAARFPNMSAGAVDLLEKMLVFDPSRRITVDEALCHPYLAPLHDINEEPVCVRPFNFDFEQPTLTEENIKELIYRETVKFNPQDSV

[4] = molecular target: T3, MPK12 (recombinant Arabidopsis MAP kinase MPK12)
T3 chain: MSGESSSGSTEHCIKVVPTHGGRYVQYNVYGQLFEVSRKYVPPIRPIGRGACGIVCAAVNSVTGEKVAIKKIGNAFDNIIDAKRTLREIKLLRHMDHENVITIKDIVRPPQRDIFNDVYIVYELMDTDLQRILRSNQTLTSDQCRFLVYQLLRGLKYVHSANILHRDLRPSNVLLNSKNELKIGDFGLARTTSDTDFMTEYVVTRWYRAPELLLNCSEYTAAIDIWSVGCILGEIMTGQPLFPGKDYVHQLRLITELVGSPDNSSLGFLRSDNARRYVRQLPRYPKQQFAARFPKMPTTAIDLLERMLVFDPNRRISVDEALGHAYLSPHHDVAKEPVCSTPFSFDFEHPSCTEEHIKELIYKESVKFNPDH

In the case of CC1=CC(=O)CC(C)(C)[C@@]1(O)/C=C/C(C)=C\C(=O)O [ABA, abscisic acid], the “stomatal conductance response to ABA” value (Brachypodium distachyon; T3 BdMPK5 CRISPR lines) is reported as “steep decline in conductance” and the “stomatal conductance response to ABA” value (Brachypodium distachyon; chill1 leaves, 5-week old) is reported as “responded similarly to WT”.

B1: BdMPK5: recombinant Brachypodium distachyon MAP kinase BdMPK5, SEQ ID NO: 13 (protein)
chain: MRMEGGGAGPAAAAAAGGAHGLGEAQIKGTLTHGGRYVQYNVYGNLFEVSAKYVPPIRPVGRGACGIICAAINVQTREEVAIKKIGNAFDNQIDAKRTLREVKLLRHMNHENVISIKDIIRPPRRENFNDVYIVYELMDTDLHHLLRSNQPLTDDHCQYFLYQVLRGLKYVHSANVLHRDLRPSNLLLNAKCDLKIGDFGLARTTTETDFMMEYVVTRWYRAPELLLNCSEYTGAIDMWSVGCILGEIATREPLFPGKDYVHQLRLITELLGSPDDTSLGFLRSDNARRYVRSLPQYPKQQFRSRFPNMSSGAMDLLERMLVFDPNKRITVDEALCHPYLASLHEINDEPVCPAPFSFDFEQPSFTEEDIKELIWRESVKFNPEPIH
modifications: Synthetic: Bd21-3 (WT) BdMPK5
With B1 the “high CO2/bicarbonate-mediated down-regulation of CBC1 phosphorylation with BdMPK5 protein” value (BdMPK5, HT1 and CBC1) was “high CO2/bicarbonate-induced down-regulation of the CBC1 protein kinase activity”.

B2: BdMPK5-D90N: chill1 variant of BdMPK5 protein, SEQ ID NO: 14 (protein)
chain: B1 chain with D90N
modifications: Synthetic: Chill1 BdMPK5
For B2, the “high CO2/bicarbonate-mediated down-regulation of CBC1 phosphorylation with BdMPK5 protein” value (BdMPK5, HT1 and CBC1) was “abrogated the high CO2/bicarbonate-mediated downregulation of CBC1 phosphorylation”.

B3: His-HT1 (recombinant Arabidopsis HT1 protein kinase, wild type, with His tag) (protein)
chain: MSGLCFNPFRLRWSLRSKLPLEPSLPNLPCNPSSSKTNRYAEAETMEKKRFDSMESWSMILESENVETWEASKGEREEWTADLSQLFIGNKFASGAHSRIYRGIYKQRAVAVKMVRIPTHKEETRAKLEQQFKSEVALLSRLFHPNIVQFIAACKKPPVYCIITEYMSQGNLRMYLNKKEPYSLSIETVLRLALDISRGMEYLHSQGVIHRDLKSNNLLLNDEMRVKVADFGTSCLETQCREAKGNMGTYRWMAPEMIKEKPYTRKVDVYSFGIVLWELTTALLPFQGMTPVQAAFAVAEKNERPPLPASCQPALAHLIKRCWSENPSKRPDFSNIVAVLEKYDECVKEGLPLTSHASLTKTKKAILDHLKGCVTSISSPFSSSSVPVNA
With B3 the “CBC1 phosphorylation, in vitro phosphorylation assay with radioactive 32P-ATP (FIG. 5)” value [1] was “We confirmed CBC1 phosphorylation by HT1 using recombinant His-HT1 and GST-CBC1 proteins”.

B4: HT1-A109V (protein)
chain: B3 chain with A109V
In the case of B4, the “NaHCO3-triggered down-regulation of CBC1 phosphorylation and CBC1 activity, in vitro phosphorylation assay with MPK4/12 and CBC1 (FIG. 3E, n=4)” value (MPK4/12) is reported as “both of these R102K and A109V mutations disrupt the NaHCO3-triggered down-regulation of CBC1 phosphorylation and CBC1 activity”, the “HCO3- dependent binding of HT1 isoform with MPK4” value (from here on “HCO3- dependent binding”) (MPK4 and HT1) is reported as “did not show a bicarbonate-induced interaction of HT1 with MPK4” and the “NaHCO3-mediated down-regulation of CBC1 phosphorylation/activity with the protein isoform in the reaction” value [2] is reported as “disrupt the NaHCO3-triggered down-regulation of CBC1 phosphorylation and CBC1 activity”.

B5: HT1-R173Q (protein)
chain: B3 chain with R173Q
With B5 the “NaHCO3-dependent CBC1 downregulation, in vitro phosphorylation assay with MPK4 and CBC1 (FIG. 3C)” value [3] was “the R173Q mutation partly impaired the NaHCO3-dependent CBC1 downregulation”, the “HCO3- dependent binding” value (MPK4 and HT1) was “partially interact with MPK4” and the “NaHCO3-mediated down-regulation of CBC1 phosphorylation/activity with the protein isoform in the reaction” value [2] was “partly impaired the NaHCO3-dependent CBC1 downregulation”.

B6: HT1-R102K (protein)
chain: B3 chain with R102K
For B6, the “NaHCO3-triggered down-regulation of CBC1 phosphorylation and CBC1 activity, in vitro phosphorylation assay with MPK12 and CBC1 (FIG. 3D, n=3)” value [4] was “both of these R102K and A109V mutations disrupt the NaHCO3-triggered down-regulation of CBC1 phosphorylation and CBC1 activity”, the “HCO3- dependent binding” value (MPK4 and HT1) was “did not show a bicarbonate-induced interaction of HT1 with MPK4” and the “NaHCO3-mediated down-regulation of CBC1 phosphorylation/activity with the protein isoform in the reaction” value [2] was “disrupt the NaHCO3-triggered down-regulation of CBC1 phosphorylation and CBC1 activity”.
